Positions count from the first letter of the chain named.
B1: S307118G03 humanised H4L1: humanised S307118G03, VH H4 (SEQ ID NO:85) + VL L1 (SEQ ID NO:91) (antibody, V domains shown)
VH: QVQLVQSGAEVKKPGSSVKVSCKASGYTFTDYYMKWVRQAPGQGLEWMGEIYPNNGGITYNQKFKGRVTITADKSTSTAYMELSSLRSEDTAVYYCADGYEFVYWGQGTLVTVSS
VL: DIQMTQSPSSLSASVGDRVTITCSASQGISNYLNWYQQKPGKAPKLLIYYTSSLHSGVPSRFSGSGSGTDYTLTISSLQPEDFATYYCQQYSKLPWTFGQGTKLEIKR
modifications: Humansed antibody sequence
B2: CA8 humanised J5M2: humanised CA8 anti-BCMA antibody, VH J5 (SEQ ID NO:21) + VL M2 (SEQ ID NO:35) (antibody, V domains shown)
VH: QVQLVQSGAEVKKPGSSVKVSCKGSGYTFTNYWMHWVRQAPGQGLEWMGATYRGHSDTYYNQKFKGRVTITADTSTSTAYMELSSLRSEDTAVYYCTRGAIYDGYDVLDNWGQGTLVTVSS
VL: B1 VL with M4L, G28D, K45E, L47V, S53N, S92R
modifications: Humansed antibody sequence
B3: CA8 humanised J5M1: humanised CA8 anti-BCMA antibody, VH J5 (SEQ ID NO:21) + VL M1 (SEQ ID NO:33) (antibody, V domains shown)
VH: B2 VH
VL: B1 VL with G28D, S53N, S92R
modifications: Humansed antibody sequence
B4: CA8 humanised J4M1: humanised CA8 anti-BCMA antibody, VH J4 (SEQ ID NO:19) + VL M1 (SEQ ID NO:33) (antibody, V domains shown)
VH: B2 VH with M48I, V68A, I70L, D103N
VL: B1 VL with G28D, S53N, S92R
modifications: Humansed antibody sequence
B5: CA8 humanised J4M2: humanised CA8 anti-BCMA antibody, VH J4 (SEQ ID NO:19) + VL M2 (SEQ ID NO:35) (antibody, V domains shown)
VH: B2 VH with M48I, V68A, I70L, D103N
VL: B1 VL with M4L, G28D, K45E, L47V, S53N, S92R
modifications: Humansed antibody sequence
B6: CA8 humanised J0M2: humanised CA8 anti-BCMA antibody, VH J0 (SEQ ID NO:11) + VL M2 (SEQ ID NO:35) (antibody, V domains shown)
VH: B2 VH with G24A, Y27G, T30S, T74K, T97A, D103N
VL: B1 VL with M4L, G28D, K45E, L47V, S53N, S92R
modifications: Humansed antibody sequence
B7: CA8 humanised J3M2: humanised CA8 anti-BCMA antibody, VH J3 (SEQ ID NO:17) + VL M2 (SEQ ID NO:35) (antibody, V domains shown)
VH: B2 VH with D103N
VL: B1 VL with M4L, G28D, K45E, L47V, S53N, S92R
modifications: Humansed antibody sequence
B8: CA8 humanised J0M1: humanised CA8 anti-BCMA antibody, VH J0 (SEQ ID NO:11) + VL M1 (SEQ ID NO:33) (antibody, V domains shown)
VH: B2 VH with G24A, Y27G, T30S, T74K, T97A, D103N
VL: B1 VL with G28D, S53N, S92R
modifications: Humansed antibody sequence
B9: CA8 humanised J3M1: humanised CA8 anti-BCMA antibody, VH J3 (SEQ ID NO:17) + VL M1 (SEQ ID NO:33) (antibody, V domains shown)
VH: B2 VH with D103N
VL: B1 VL with G28D, S53N, S92R
modifications: Humansed antibody sequence
B10: CA8 humanised J2M2: humanised CA8 anti-BCMA antibody, VH J2 (SEQ ID NO:15) + VL M2 (SEQ ID NO:35) (antibody, V domains shown)
VH: B2 VH with G24A, T74K, D103N
VL: B1 VL with M4L, G28D, K45E, L47V, S53N, S92R
modifications: Humansed antibody sequence
B11: CA8 humanised J2M1: humanised CA8 anti-BCMA antibody, VH J2 (SEQ ID NO:15) + VL M1 (SEQ ID NO:33) (antibody, V domains shown)
VH: B2 VH with G24A, T74K, D103N
VL: B1 VL with G28D, S53N, S92R
modifications: Humansed antibody sequence
B12: CA8 humanised J1M2: humanised CA8 anti-BCMA antibody, VH J1 (SEQ ID NO:13) + VL M2 (SEQ ID NO:35) (antibody, V domains shown)
VH: B2 VH with G24A, T74K, T97A, D103N
VL: B1 VL with M4L, G28D, K45E, L47V, S53N, S92R
modifications: Humansed antibody sequence
B13: CA8 humanised J1M1: humanised CA8 anti-BCMA antibody, VH J1 (SEQ ID NO:13) + VL M1 (SEQ ID NO:33) (antibody, V domains shown)
VH: B2 VH with G24A, T74K, T97A, D103N
VL: B1 VL with G28D, S53N, S92R
modifications: Humansed antibody sequence
B14: S307118G03 humanised H3L1: humanised S307118G03, VH H3 (SEQ ID NO:83) + VL L1 (SEQ ID NO:91) (antibody, V domains shown)
VH: B1 VH with M48I, V68A, I70L, A72V, D98N
VL: B1 VL
modifications: Humansed antibody sequence
B15: S307118G03 humanised H3L0: humanised S307118G03, VH H3 (SEQ ID NO:83) + VL L0 (SEQ ID NO:89) (antibody, V domains shown)
VH: B1 VH with M48I, V68A, I70L, A72V, D98N
VL: B1 VL with Y71F
modifications: Humansed antibody sequence
B16: S307118G03 humanised H2L0: humanised S307118G03, VH H2 (SEQ ID NO:81) + VL L0 (SEQ ID NO:89) (antibody, V domains shown)
VH: B1 VH with D98N
VL: B1 VL with Y71F
modifications: Humansed antibody sequence
B17: S307118G03 humanised H2L1: humanised S307118G03, VH H2 (SEQ ID NO:81) + VL L1 (SEQ ID NO:91) (antibody, V domains shown)
VH: B1 VH with D98N
VL: B1 VL
modifications: Humansed antibody sequence

Each molecule was assayed against T1, Human in house BCMA (Homo sapiens, UniProt Q02223) (assay: ProteOn analysis of CA8 chimeric and humanised constructs, human in house BCMA). Conditions: Run 1, Human in house BCMA, ProteOn, 25° C.
T1 construct: CD33 signal peptide (N); TEV site (internal); Fc (C); made in house
T1 sequence (Q02223 with tags, fused parts or gaps limits assumed): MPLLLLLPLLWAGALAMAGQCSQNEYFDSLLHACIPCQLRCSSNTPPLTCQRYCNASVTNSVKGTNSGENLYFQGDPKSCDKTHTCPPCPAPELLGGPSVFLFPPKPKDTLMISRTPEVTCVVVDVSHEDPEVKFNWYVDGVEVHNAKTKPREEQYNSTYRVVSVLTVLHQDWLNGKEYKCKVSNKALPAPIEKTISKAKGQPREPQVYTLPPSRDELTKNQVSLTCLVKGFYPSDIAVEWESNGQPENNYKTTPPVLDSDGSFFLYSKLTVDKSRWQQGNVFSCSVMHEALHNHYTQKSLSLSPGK
Format: binding
Protocol: The initial screen of CA8 chimeric and humanised variants was carried out on the ProteOn XPR36 (Biorad). The method was as follows; Protein A was immobilised on a GLC chip (Biorad, Cat No: 176-5011) by primary amine coupling, CA8 variants were then captured on this surface and recombinant human BCMA (in house or commercial US Biological, B0410) materials (run 2 only)) passed over at 256, 64, 16, 4, 1 nM with a 0 nM injection (i.e. buffer alone) used to double reference the binding curves, the buffer used is the HBS-EP buffer. 50 mM NaOH was used to regenerate the capture surface. The data was fitted to the 1:1 model using the analysis software inherent to the ProteOn XPR36. Run 1 corresponds to the first screen of humanised CA8 variants (JO to J5 series) and run 2 to the second screen of humanised CA8 variants (J5 to J9 series). Both runs were carried out at 25° C.
For B1, the KD was “No”.

Same assay, conditions: Run 1, Human in house BCMA, ProteOn, 25° C.; in M-1s-1 (unit assumed)
Molecule B2 has a ka of 2.67E+05.
In the case of B3, the ka is reported as 2.97E+05.
B4 was tested, and the ka was 2.54E+05.
For B5, the ka was 2.51E+05.
B6 showed a ka of 2.25E+05.
For B7, the ka was 2.66E+05.
B8 was tested, and the ka was 2.31E+05.
With B9 the ka was 2.85E+05.
For B10, the ka was 2.05E+05.
For B11, the ka was 2.04E+05.
For B12, the ka was 2.15E+05.
With B13 the ka was 2.27E+05.
B14 was tested, and the ka was 4.69E+05.
In the case of B15, the ka is reported as 2.86E+05.
Molecule B16 has a ka of 3.78E+05.
Work on B17 yielded a ka of 3.38E+05.

Same assay, conditions: Run 1, Human in house BCMA, ProteOn, 25° C.; in s-1 (unit assumed)
For B2, the kd was 3.21E−05.
Work on B3 yielded a kd of 4.32E−05.
B4 gave a kd of 7.04E−05.
With B5 the kd was 7.06E−05.
B6 showed a kd of 6.97E−05.
B7 was tested, and the kd was 9.64E−05.
Molecule B8 has a kd of 8.60E−05.
With B9 the kd was 1.25E−04.
For B10, the kd was 9.87E−05.
B11 was tested, and the kd was 1.72E−04.
B12 showed a kd of 2.46E−04.
In the case of B13, the kd is reported as 3.43E−04.
B14 showed a kd of 2.28E−03.
B15 gave a kd of 1.52E−03.
In the case of B16, the kd is reported as 2.41E−03.
Molecule B17 has a kd of 2.15E−03.

Same assay, conditions: Run 2, ProteOn, recombinant human BCMA; no affinity values obtained
For B2, the off rate was “beyond the sensitivity of the assay”.
B3 was tested, and the off rate was “beyond the sensitivity of the assay”.

The molecules below were run against Cyno in house BCMA (assay: ProteOn analysis of CA8 chimeric and humanised constructs, cyno in house BCMA). Conditions: Run 1, Cyno in house BCMA, 25° C.
Cyno in house BCMA, sequence (as listed by the source): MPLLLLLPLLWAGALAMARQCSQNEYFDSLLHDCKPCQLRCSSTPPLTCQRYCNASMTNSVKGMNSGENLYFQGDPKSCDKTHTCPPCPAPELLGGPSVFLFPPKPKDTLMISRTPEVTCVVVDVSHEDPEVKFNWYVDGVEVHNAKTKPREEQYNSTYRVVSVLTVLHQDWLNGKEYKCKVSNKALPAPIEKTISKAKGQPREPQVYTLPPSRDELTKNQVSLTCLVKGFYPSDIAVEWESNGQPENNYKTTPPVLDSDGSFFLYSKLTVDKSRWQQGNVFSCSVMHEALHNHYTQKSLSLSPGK
Format: binding
With B14 the KD was “No”.
For B15, the KD was “No”.
With B16 the KD was “No”.
With B17 the KD was “No”.
In the case of B1, the KD is reported as “No”.

Same assay, conditions: Run 1, Cyno in house BCMA, 25° C., in M-1s-1 (unit assumed)
B2 was tested, and the ka was 4.30E+05.
B3 gave a ka of 4.81E+05.
B4 gave a ka of 3.50E+05.
B5 showed a ka of 3.44E+05.
B6 gave a ka of 3.26E+05.
With B7 the ka was 3.69E+05.
In the case of B8, the ka is reported as 3.32E+05.
B9 showed a ka of 4.04E+05.
B10 showed a ka of 2.98E+05.
For B11, the ka was 2.96E+05.
Molecule B12 has a ka of 3.19E+05.
B13 gave a ka of 3.33E+05.

Same assay, conditions: Run 1, Cyno in house BCMA, 25° C., in s-1 (unit assumed)
Work on B2 yielded a kd of 4.70E−05.
Work on B3 yielded a kd of 5.41E−05.
Work on B4 yielded a kd of 7.10E−05.
Work on B5 yielded a kd of 6.15E−05.
In the case of B6, the kd is reported as 1.84E−04.
B7 gave a kd of 5.87E−05.
With B8 the kd was 1.67E−04.
B9 gave a kd of 7.93E−05.
B10 gave a kd of 3.17E−05.
With B11 the kd was 6.46E−05.
With B12 the kd was 9.67E−05.
B13 was tested, and the kd was 1.47E−04.
